Laboratory results: a protein production outcome set (Wang et al. 2014)

Assay: label from the status in PepcDB records
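Also: failed if final PepcDB status was selected cloned or expressed and not failed if soluble or beyond.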

Sequence	protein production
MIVFVRFNSSYGFPVEVDSDTSIFQLKEVVAKRQGVPADQLRVIFAGKELQNHLTVQNCDLEQQSIVHIVQRPQRKSHETNASGGDKPQSTPEGSIWEPRSLTRVDLSSHILPADSVGLAVILDTDSKSDSEAARGPAAKPTYHSFFVYCKGPCHKVQPGKLRVQCGTCRQATLTLAQGPSCWDDVLIPNRMSGECQSPDCPGTRAEFFFKCGAHPTSDKDTSVALNLITNNSRSIPCIACTDVRNPVLVFQCNHRHVICLDCFHLYCVTRLNDRQFVHDAQLGYSLPCVAGCPNSLIKELHHFRILGEEQYNRYQQYGAEECVLQMGGVLCPRPGCGAGLLPEQGQRKVTCEGGNGLGCGFVFCRDCKEAYHEGECDSMFEASGATSQAYRVDQRAAEQARWEEASKETIKKTTKPCPRCNVPIEKNGGCMHMKCPQPQCKLEWCWNCGCEWNRACMGDHWFDV	failed
MIVFYDSWCPMCTAVAERTKKLDKKGKVKFVSFRDEDVVEKYELSQELQSKMEQRLYIFKNNKWYDGIHSIHVLAKSIPSYWFAVPFIKLSIVLGFGNKVYDYIANNRKLVPVGHCRGGVCEIPTKK	failed
MIVGGRRAPLPRFFSRPVEFAALSLDPEKDPIDVFDDAYFFVHAAFSHVPGKYRGGEGDDPKSFHRLNLDGTVRLFEAAKRAGTRRCVFLSSRAAYGDYPPGIELVETMLPKPETLYGQIKLDAEGALTHLSAPGFAGVSLRATGVYGDLTPGKWDDLIADYLAGRPVAARAGTEVHGRDLGRAVRLMLETESTRISGEVFNISDITVDTQDILAPIRRETSGPHALPPPADKAALNPMSTAKIRALGWMPGGTPLFEETMRRLAAALPVSPRHRSAQDRQASSSGGRQPQTGTT	failed
MIVGRDGVGVVEHAEQGPRIAVAVVTMGNRPAEVDALLASVAKQDLPPARIVIVGNGCPLPEFARRLDLPGEVTGIEVDENLGCPGGRNVALAKLREFGDVDVVVELDDDGLLVDADVLRRVRDLYAADPRLGIVGFRIADENGETQRRHVPRVGKSDPLRGGPVTGFLGGGHALSMAMLARTGDWPAEFFFAHEETDLAWRATDAGWTILYAPELLLQHPKTSPARHAIYHRVTARNRVWLARRRLPLPLIPVHLGIWIAVTLVRTRSAGGLRAWFGGFMEGVRTSGGERRPMRWRTVWRLTRLGRPPVILEHHHHHH	failed
MIYPDETMLYAPVEWHDCSEGYTDIRYEKSTDGIAKITINRPQVRNAFRPLTVKEMIQALADARYDDNVGVIILTGEGDKAFCAGGDQKVRGDYGGYQDDSGVHHLNVLDFQRQIRTCPKPVVAMVAGYSIGGGHVLHMMCDLTIAAENAIFGQTGPKVGSFDGGWGASYMARIVGQKKAREIWFLCRQYDAQQALDMGLVNTVVPLADLEKETVRWCREMLQNSPMALRCLKAALNADCDGQAGLQELAGNATMLFYMTEEGQEGRNAFNQKRQPDFSKFKRNP	not failed
MIYWLSLASAAFIGLAALVWKMSAIARENRVLKAEFSLGRLKKELNVFFISDIHRRTVSEDIICEVKERGVQLVIIGGDLAEGGVPYTRIEENIKRLSSLGKTYFVWGNNDYEVDQERLLEIFKTYGVTPLRNASVLHDHQGQTVNICGVDDIRLELDDYPAALGGVQPGFPTVLVSHNPEIHHQIQEADGIDLILSGHTHGGQIRFGRFGLCEIGGTGTVFKAPYLISNGYGTSKLPLRLGARPETHLINLVPGPRMEGN	failed
MIYYGTMFDHKVRFSIVRMREVVEEARNRHALSYLATVVLGRALIGAALVTPWLAEKERWTLDIEGNGPIRRVVAQSTSEFTVRGYVANPKVELPLNEKGKFDVAGAIGQGVLRVVRDLGLKTPFVSQVPLVSGEIAEDLAYYFAVSEQIPSAFSIGVLVDSDGVKIAGGFAVQIIDRTLEQEKVEMIEKNIKNLPSISKLFQEAEPLDVLERIFGEKVGFVETAEIKYKCDCNREKAKNALLVLDKKELEDMRKEGKGEVVCKWCNTRYVFSEEELEELLKFKVDDSGS	not failed
MKADKWNHVETARYFRDLQENEVRTMHYLGLAYVVLSRRPNLQLKVPLSTQNYEDGAIVGAGERGGYALQLLFTCAANYPLARPLVEIVEKRNVSDAFEQVLRKEIDLILEEHLGLQMIVPVVTRLQITLNTEMKR	not failed
MKAELIAVGTEILTGQIVNTNAQFLSEKMAELGIDVYFQTAVGDNEERLLSVITTASQRSNLVILCGGLGPTKDDLTKQTLAKYLRKDLVYDEQACQKLDDFFAKRKPSSRTPNNERQAQVIEGSIPLPNKTGLAVGGFITVDGISYVVLPGPPSELKPMVNEELVPLLSKQYSTLYSKVLRFFGIGESQLVTVLSDFIENQTDPTIAPYAKTGEVTLRLSTKTE	failed
MKAGIHPDYKKVVFMDTNTGFKFLSGSTKGSNETVEWEDGNTYPLLKVEISSDSHPFYTGRQKFATADGRVDRFNKKYGLK	failed
MKAIILAGGHSVRFGKPKAFAEVNGETFYSRVIKTLESTNMFNEIIISTNAQLATQFKYPNVVIDDENHNDKGPLAGIYTIMKQHPEEELFFVVSVDTPMITGKAVSTLYQFLVSHLIENHLDVAAFKEDGRFIPTIAFYSPNALGAITKALHSDNYSFKNIYHELSTDYLDVRDVDAPSYWYKNINYQHDLDALIQKLLEHHHHHH	not failed
MKAKHLTQLLKASFLSCSMIATTLSMAQLPPAPQEKYGDGRVSEFYTWKSAIPAQPGKLLRTEAVHNPYIRLANDSQAIRILYSSTSGKDSKTPIVVSGSIHLPKGNPPKEGWPVVLWAHGTVGLADACAPSWSGRSYRDVQYLNRWLNEGFAVVATDYEGLGVAGPHLLINNPMLAYSILDSGRAALKTKLPLANKFVIVGQSQGGAGAVAASSYSATYAPDLNIKGSIGTGVIYKDPEATPEKNQLKLNPYEVSPSLAYGIYSFLVTQSLYPEIKTEEIFTPEAAPLVEQARNACLTSFMGDIQTAGLSPAQAYKPNPPTSYKKLQEKESNDYGYYPTLKISHPLFIGTGANDRTPDARSQMKLVADACKAGTVVEGHLYHGLGHSETVNASLKDSIPFAKKVIAGEKIQAICKPDLQ	failed
MKALLPGLYLLPVPIPYPLKTVNLYLLQGAGEVALVDTALGTRAARGALELHLAELGLCFQDVKTILLTHHHPDHYGLSGFFEGLGARVFLHEEEFARGHRFWREPEAFAEASWRLFLDHGTPEGALQGIRETVEKTRERVHPPQNPLPLRDGEALEVAGKRLRVLWTPGHADGHAAFYLEEEGVLLAGDALLEKVSPNVGLWAYTRENPLKDFLRSLDRLADLGARVAYAGHFGPIADVRQRAEELKAHHQARLEALLALLDGPKTAWELSLHLFPQELDPAGRRFAFAETLAHLEYLREEGAVGRGGPPYRYFRR	not failed
MKAPEGIACGKRQLVVSDTGGGRLLSYSIENGSVRGGTEIKAEQVPYPTKVQLTSKGEILVIDGKLRRIAHFSPEGSFAGYLDLKGVPAPATIAPRGIRVDDKDNIHILDIFGARVIVTDAAGTFQSQMPFPEGYRFISDLAVSASGTTLLLDSVASRVYAAARGETAFKPLTDGMKEYLQFPTSIATDKQGKIFILDQTGNAVVTLGQDGSFQGRQLNIGWKNSFLHYPSQLCISEENDIDVVIADRNNNRIQVFRVVRLEHHHHHH	failed
MKAPLVSIIIPVWNLWELTCACLDSIRAHTPGNAVEVIVVDNGSDDTTATALAPTGEGLFGARFRRIRLETNRGFAVACNLGAAKAQGTYLLLLNNDTVLSPGWLPPLLREFDDEPRTGAAGPLLVYPDSGRVQHCGIAFAPTLQTEHLYANFPATHPAVRARRTLQAITGAAMLLPTALFRQCGGFHEGYKNGCEDLELCCRIREQGLRLAVVPESLVAHHESRTPGRKEHDAANATLLNRRCSGCFGPDLHRHALRDGFAIALTPWLDTYLTLPPGREAALTREHITDFDPGRCWETLQGEPLWHGGYEMLCSILDEAGRHAESAGVRLLQAGFFPTLPGFRQLARSAALSGNDELARQAAEKMQHIGGILEDPEPLVTRARGLVRWARRAGEPAVEALYTGWLTDIGLSADDLEHHHHHH	not failed
MKAPRLIGAEIFRHSSYGRWHPLRVPRVSTVMDLSRAMGWLPPAQFITAPRAKPKALLAWHTADYIAALQRVEATQEATPHDTQRHDIGTVTNPVYPEIFRRPATAAGGSLLAGELLREGGIIYNPPGGTHHGMPDRANGFCYLNDPVLAMLSLRRNGVQRIAYVDIDAHHCDGVAAGFHGDPQCLMISVHEEGLWPRTGLLEDTAGGAGLNLPVPRGLNDTEMAYIRDRLILPQVEAFRPDAVVLLCGADGVEEDPLAHLCLSNNAHWAVTKALMGIAPRMLVLGGGGYNPWSVGRLWTGVWATLNGHDIPDRLPPEAQAVLRALRFEGNRRGKNPPEHWFTTLRDAPRPGPVRSDITDRVAELSRKAARLRLDH	failed
MKAVIVYASVHHGNTKKIAEAMASVISADVIDVTRKIKPDLSGYDVIGFASGVYFHTFHERIKKCIEENLFSKGQKVFLVATCGLGYRDYTKGIKDILAKKHVSFIGNFQCRGWDTYGIFGKIGGIAKKHPNDRDLKEAQQFVLKTVCEKTIDDVALLG	failed
MKAVRRQISRFSAHRWWSIVLKEFLQLRRDRVTFGMMIGIPIIQLLLFGFAINSDPRHMPTAVIVAEHSDFSRTFIAALDNTTYFKVVRTMPDEASGREALMRGDVQFVVSIPADFSRRLLHGDRPSILVEADATDPSATGQAIAALAQLPATVARIDLKGALAPLAGGQPAFDVNVHRLYNPEGITQYNIVPGLMGTILTMTMVMMTGLAMTRERERGTMENLLATPVQPLEVISGKIIPYIFIGLIQATIILLAAHFVFGVPFVGSPVAVYLAALLFIAANLTVGITLSSLAANQLQALQLTFFYFLPNILLSGFMFPFAGMPTWAQWIGNVLPMTYFNRMIRSIMLKGSGWIELWPNVWPVALFTVIVLTIAVRFYKRTLD	failed
MKAVVMAGGEGTRLRPMTANQPKPLLPVVNRPIMEHVLRLLKRHGFEDTVVTVQFLATLIRNYFGDGEELGMSLRYVAEEVPLGTAGSVKNAEEHLRGEPFIVISGDALTDIDLTDMVRFHRENGALVTIGLKRVANPLEFGIIIVDDNGRIQRFLEKPTWGQVFSDTVNTGIYIMEPEVLDHVAPGENVDWSGDVFPKLLKAGAPLYGYIADGYWEDVGTHESYLRAQADVLSGKVDVEIDGFEVSPGIWVAEGAEVDPEAVLKGPLYIGDYAKVEPGAELREFTVLGSNVVVRSEAFLHRAVVHDNVYVGTRANLRGCVVGKNTDIMAGVRIEEGTVVGEECVLESEAYLANNIKVYPFKTIEAGAVVNTNVIWESKGQRSLFGPRGVSGLINVEITPELAVRLASAYATTLKKGAVVTTARDASRAARTLKRAVISALTAAAINVQDLEATPLPLARFHTSQPGLSGGIALRTTPGDPQSVDIVFLDSSGADLSPAAQRKLERVFSRQEYRRAFPGEIAELSFPSRSVEAYTRELLQSIDLSGVAEANLKVVVDCAGGTGSLILPALLSQIDADVLTVNNRLDEASPTDTPAKRTRDLQRLGELVASARADFGVRFDPVGERIQLVDGSGTLVDDERALLVVLDLVAAERQGGRVALPVTTTRVAEQVANRHGVDVQWTPTSLDALTKAALADDIIFAADGRGGFILPEFSRTCDGIAAFVRLIGLVARTKMSLSQIDQRIPQAHLLRRSVPTPWAVKGSVMREVVEAAQGREIDTTDGVRVIEPDGSWALVLPDTAEAVTHLWAEGPDDETAQRLLEEWSAVVERAEG	failed
MKAYQNILVAIDGSGADDALIEQVSALAAPLGSRVHLLHVVHSHTIDQERALREQAGEFLERYRAAMQQQGIEAEVLIRSGEPDREILKEIEERRYDLLAMAAHGHRLFSRLLFGSVSRALRNKIDIPLLLVRGEAR	failed
MKDEVQLKKYLPSLIFAIILPVIAYLFLKMLGNSDTLALGIATAFPVVHMLWSLIRKKELNPVSLVAIIGFLISLLAVYLTHGNNLAFKLWHPILTAAIGTIFLLSVLLNRPLLELASEGENHRKMLIMTLFMGLVFIFHALSVILLAFFVETTAFVLLSKVIDFSAVGVLVLGLAFLRKKLN	failed
